Laboratory results from FireProtDB.

B1: Chemotaxis protein CheY, P0AE67 (parent)
chain: MADKELKFLVVDDFSTMRRIVRNLLKELGFNNVEEAEDGVDALNKLQAGGYGFVISDWNMPNMDGLELLKTIRADGAMSALPVLMVTAEAKKENIIAAAQAGASGYVVKPFTAATLEEKLNKIFEKLGM
B2: Lysozyme C, P61626 (parent)
chain: MKALIVLGLVLLSVTVQGKVFERCELARTLKRLGMDGYRGISLANWMCLAKWESGYNTRATNYNAGDRSTDYGIFQINSRYWCNDGKTPGAVNACHLSCSALLQDNIADAVACAKRVVRDPQGIRAWVAWRNRCQNRDVRQYVQGCGV
B3: Phosphoglycerate kinase 1, P00558 (parent)
chain: MSLSNKLTLDKLDVKGKRVVMRVDFNVPMKNNQITNNQRIKAAVPSIKFCLDNGAKSVVLMSHLGRPDGVPMPDKYSLEPVAVELKSLLGKDVLFLKDCVGPEVEKACANPAAGSVILLENLRFHVEEEGKGKDASGNKVKAEPAKIEAFRASLSKLGDVYVNDAFGTAHRAHSSMVGVNLPQKAGGFLMKKELNYFAKALESPERPFLAILGGAKVADKIQLINNMLDKVNEMIIGGGMAFTFLKVLNNMEIGTSLFDEEGAKIVKDLMSKAEKNGVKITLPVDFVTADKFDENAKTGQATVASGIPAGWMGLDCGPESSKKYAEAVTRAKQIVWNGPVGVFEWEAFARGTKALMDEVVKATSRGCITIIGGGDTATCCAKWNTEDKVSHVSTGGGASLELLEGKVLPGVDALSNI
B4: chitinase, Q54276 (parent)
chain: MSTRKAVIGYYFIPTNQINNYTETDTSVVPFPVSNITPAKAKQLTHINFSFLDINSNLECAWDPATNDAKARDVVNRLTALKAHNPSLRIMFSIGGWYYSNDLGVSHANYVNAVKTPASRAKFAQSCVRIMKDYGFDGVDIDWEYPQAAEVDGFIAALQEIRTLLNQQTITDGRQALPYQLTIAGAGGAFFLSRYYSKLAQIVAPLDYINLMTYDLAGPWEKVTNHQAALFGDAAGPTFYNALREANLGWSWEELTRAFPSPFSLTVDAAVQQHLMMEGVPSAKIVMGVPFYGRAFKGVSGGNGGQYSSHSTPGEDPYPSTDYWLVGCEECVRDKDPRIASYRQLEQMLQGNYGYQRLWNDKTKTPYLYHAQNGLFVTYDDAESFKYKAKYIKQQQLGGVMFWHLGQDNRNGDLLAALDRYFNAADYDDSQLDMGTGLRYTGVGPGNLPIMTAPAYVPGTTYAQGALVSYQGYVWQTKWGYITSAPGSDSAWLKVGRVA
B5: Cyanovirin-N, P81180 (parent)
chain: LGKFSQTCYNSAIQGSVLTSTCERTNGGYNTSSIDLNSVIENVDGSLKWQPSNFIETCRNTQLAGSSELAAECKTRAQQFVSTKINLDDHIANIDGTLKYE

Variants of: B1
Settings: Escherichia coli (strain K12); pH 7; 25 °C; Urea; Fluorescence; Cacodylate 100 mM; structure 1CEY; whole UniProt chain shown

Variant | ddG of mutation (higher = less stable) [kcal/mol] | unfolding free energy [kcal/mol]
D12A | -2.5 | 8.1

Variants of: B2
Settings: Homo sapiens; pH 3; 10 °C; GdnHCl; Fluorescence; glycine-HCl 40 mM; reversible: yes; structure 1LZ1; whole UniProt chain shown

Variant | ddG of mutation (higher = less stable) [kcal/mol] | unfolding free energy [kcal/mol]
C95A C113A | 5.7 | 6.1

Same assay, conditions: Homo sapiens; pH 4; 10 °C; GdnHCl; CD; glycine-HCl 40 mM; reversible: yes; structure 1LZ1; whole UniProt chain shown

Variant | ddG of mutation (higher = less stable) [kcal/mol] | unfolding free energy [kcal/mol]
C95A C113A | 5.8 | 8.2

Same assay, conditions: Homo sapiens; pH 4; 10 °C; GdnHCl; CD; GdnHCl 40 mM; reversible: yes; structure 1LZ1; whole UniProt chain shown

Variant | ddG of mutation (higher = less stable) [kcal/mol] | denaturant m value [kcal/mol/M] | denaturant midpoint (higher = more stable) [M] | unfolding free energy [kcal/mol]
D85H | 4.54 | 3.2 | 3.1 | 9.44
I74T | 6.67 | 2.96 | 2.7 | 7.31

Same assay, conditions: Homo sapiens; pH 5.2; 20 °C; GdnHCl; CD; Sodium acetate 20 mM; reversible: yes; structure 1LZ1; whole UniProt chain shown

Variant | ddG of mutation (higher = less stable) [kcal/mol] | denaturant m value [kcal/mol/M] | denaturant midpoint (higher = more stable) [M] | unfolding free energy [kcal/mol]
W82C C83A | 2.2 | 3.3 | 3.79 | 12.5

Same assay, conditions: Homo sapiens; pH 2.35; 36.7 °C; Thermal; DSC; Gly-HCl 0.05 M; reversible: yes; structure 1LZ1; whole UniProt chain shown

Variant | unfolding enthalpy (calorimetric) [kcal/mol] | unfolding enthalpy (van 't Hoff) [kcal/mol]
I77A | 55.7 | 58.1

Same assay, conditions: Homo sapiens; pH 2.9; 47.2 °C; Thermal; DSC; Gly-HCl 0.05 M; reversible: yes; structure 1LZ1; whole UniProt chain shown

Variant | unfolding enthalpy (calorimetric) [kcal/mol] | unfolding enthalpy (van 't Hoff) [kcal/mol]
I77A | 72.7 | 74.8

Variants of: B3
Settings: Homo sapiens; pH 7.4; 25 °C; Urea; CD; HEPES 20mM; NaCl 200 mM; transition: 2; reversible: Yes; structure 2WZB; whole UniProt chain shown

Variant | ddG of mutation (higher = less stable) [kcal/mol] | denaturant m value [kcal/mol/M] | denaturant midpoint (higher = more stable) [M] | unfolding free energy [kcal/mol]
T378P | 4.8 | 1.5 | 2.28 | 3.5
E252A | 0.7 | 3.2 | 2.37 | 7.6

Variants of: B4
Settings: Serratia marcescens; pH 8; Thermal; CD; sodium phosphate 20 mM; reversible: No; structure 1E6N; whole UniProt chain shown

Variant | Tm [°C] | change of melting temperature, mutant - wild type (higher = more stable) [°C]
G188A A234P | 64.1 | 4.2

Variants of: B5
Settings: Nostoc ellipsosporum; pH 6; Thermal; CD; Sodium phosphate 10 mM; structure 1N02; whole UniProt chain shown

Variant | Tm [°C] | change of melting temperature, mutant - wild type (higher = more stable) [°C]
P51G | 50.2 | 1.7
